Consider three proteins from paper PMC3008546 (Structure (London, England : 1993), 2010).

The series “SAXS” deals with the molecule itself. The series is described as follows: SAXS.
The series “SEC-MALS” concerns the molecule itself. The series is described as follows: SEC-MALS. (In general: In gel filtration, larger molecules generally elute earlier.)

B1: XRCC4 1-140 (domain or fragment, human, UniProt Q13426 1-140, looked up)
chain: MERKISRIHLVSEPSITHFLQVSWEKTLESGFVITLTDGHSAWTGTVSESEISQEADDMAMEKGKYVGELRKALLSGAGPADVYTFNFSKESCYFFFEKNLKDVSFRLGSFNLEKVENPAEVIRELICYCLDTIAENQAK
A word on the stoichiometry N: it is the number of molecules, sites or subunits per partner or assembly. On to B1, for which the “stoichiometry N” value in “SAXS” was determined as 2.

B2: XRCC4 1-161 (domain or fragment, human, UniProt Q13426 1-161, looked up)
chain: MERKISRIHLVSEPSITHFLQVSWEKTLESGFVITLTDGHSAWTGTVSESEISQEADDMAMEKGKYVGELRKALLSGAGPADVYTFNFSKESCYFFFEKNLKDVSFRLGSFNLEKVENPAEVIRELICYCLDTIAENQAKNEHLQKENERLLRDWNDVQGR
In the case of B2, in the series “SAXS”, the “stoichiometry N” value is 2.

B3: full-length XRCC4 (natural protein, human, UniProt Q13426 1-336, looked up)
chain: MERKISRIHLVSEPSITHFLQVSWEKTLESGFVITLTDGHSAWTGTVSESEISQEADDMAMEKGKYVGELRKALLSGAGPADVYTFNFSKESCYFFFEKNLKDVSFRLGSFNLEKVENPAEVIRELICYCLDTIAENQAKNEHLQKENERLLRDWNDVQGRFEKCVSAKEALETDLYKRFILVLNEKKTKIRSLHNKLLNAAQEREKDIKQEGETAICSEMTADRDPVYDESTDEESENQTDLSGLASAAVSKDDSIISSLDVTDIAPSRKRRQRMQRNLGTEPKMAPQENQLQEKENSRPDSSLPETSKKEHISAENMSLETLRNSSPEDLFDEI
On to B3, for which the “stoichiometry N” value in “SEC-MALS” came to 4.
